In patent US20240400654A1:
Values joined by “and” are separate entries in the source; they are usually repeats but may differ in a detail not shown here. Identical values can stand only once.

Legend:
[1] = molecular target: HRgpA-6H (Porphyromonas gingivalis) (UniProt P28784); assay: ELISA; non-related FASEBA supernatant on HRgpA-6H coat; secondary Anti-BSA (HRP)
[2] = molecular target: HRgpA-6H (Porphyromonas gingivalis) (UniProt P28784); assay: ELISA; non-related FASEBA supernatant on HRgpA-6H coat; secondary goat anti-human IgG (H+L) HRP
[3] = molecular target: HRgpA-6H (Porphyromonas gingivalis) (UniProt P28784); assay: ELISA; non-related FASEBA supernatant on HRgpA-6H coat; secondary goat anti-human IgG F(ab')2 HRP
[4] = molecular target: HRgpA-6H (Porphyromonas gingivalis) (UniProt P28784); assay: ELISA; non-related FASEBA supernatant on HRgpA-6H coat; secondary mouse anti-human IgG F(ab')2 HRP
[5] = molecular target: whole P. gingivalis cells (strain W83) (Porphyromonas gingivalis)
[6] = molecular target: whole P. gingivalis cells (strain W83) (Porphyromonas gingivalis); assay: gold-labelled KB001, scanning electron microscopy, W83
[7] = molecular target: HRgpA-6H (Porphyromonas gingivalis) (UniProt P28784); assay: SPR Biacore 8K, 25 C; table lists HRgpA-6H as ligand, antibody as analyte
[8] = molecular target: HRgpA-6H (Porphyromonas gingivalis) (UniProt P28784); assay: SPR Biacore 8K, 25 C; HRGPA-6H immobilized on CM5, KB001-WT-Ab as analyte
[9] = molecular target: HRgpA-6H (Porphyromonas gingivalis) (UniProt P28784); assay: ELISA, FASEBA screening, coated HRgpA-6H 0.0625 ug/ml
[10] = molecular target: HRgpA-6H (Porphyromonas gingivalis) (UniProt P28784); assay: ELISA, FASEBA screening, coated HRgpA-6H; library clone found WT, OD over parental WT Fab OD
[11] = molecular target: HRgpA-6H (Porphyromonas gingivalis) (UniProt P28784); assay: SPR Biacore 8K; table lists HRgpA-6H as ligand, antibody as analyte

With “non-related FASEBA supernatant (NC) (Fab)” as the molecule, how does the OD450 [1] read?
The OD450 was 1.09.

What about the OD450 ([2]; coating antigen 1 µg/ml) of the same molecule?
Its OD450 is 1.15.

And the OD450 ([2]; coating antigen 2 µg/ml)?
Its OD450 is 0.736.

What about the OD450 [3] of the same molecule?
Its OD450 is 0.672.

And the OD450 ([4]; coating antigen 1 µg/ml)?
Its OD450 is 0.552.

What about the OD450 ([4]; coating antigen 2 µg/ml) of the same molecule?
Its OD450 is 0.288.

B1: KB001 (antibody, V domains shown)
VH: EVQLKQSGPGLVAPSQSLSITCTVSGFSLSIYSVHWVRQPPGKGLEWLGMIWGGGSSDYNSALKSRLSISKDNSKSQVFLKMNSLQTDDTAMYYCARNGNFYAMDYWGQGTSVTVSS
VL: QIVLTQSPAIMSASLGERVTMTCTASSSVSSSFLHWYQQKPGSSPQLWIYSTSNLASGVPARFSGSGSGTSYSLTISSMEAEDAATYYCHQYHHSPYIYTFGGGTKLEIKR
For B1, which Kd [5] is on record?
Its Kd is 11.4 nM.

What about the Response [5] of the same molecule?
Its Response is 0.297 and 0.216 and 0.186.

And the koff [5]?
The koff was 0.000219 s⁻¹.

What about the kon [5] of the same molecule?
Its kon is 19200 M⁻¹ s⁻¹.

And the IgG molecules bound per bacterium (molecules per bacterium) [6]?
The IgG molecules bound per bacterium (molecules per bacterium) was 60 and 80.

What about the Kd [7] of the same molecule?
The Kd was 2.02 nM.

What about the koff [7] of the same molecule?
The koff was 8.62e-05 s⁻¹.

And the kon [7]?
The kon was 42600 M⁻¹ s⁻¹.

And the Kd [8]?
Its Kd is 2.02 nM.

And the koff [8]?
The koff was 8.62e-05 s⁻¹.

What about the kon [8] of the same molecule?
The kon was 42600 M⁻¹ s⁻¹.

B2: KB001 parental mouse Fab FASEBA (WT) (Fab, V domains shown)
VH: EVQLKQSGPGLVAPSQSLSITCTVSGFSLSIYSVHWVRQPPGKGLEWLGMIWGGGSSDYNSALKSRLSISKDNSKSQVFLKMNSLQTDDTAMYYCARNGNFYAMDYWGQGTSVTVSS
VL: QIVLTQSPAIMSASLGERVTMTCTASSSVSSSFLHWYQQKPGSSPQLWIYSTSNLASGVPARFSGSGSGTSYSLTISSMEAEDAATYYCHQYHHSPYIYTFGGGTKLEIK
Which results are given for B2?
OD450 nm [9]: 0.831; Ratio OD(Variant)/OD(WT) [10]: 0.956

B3: H14 (antibody, V domains shown)
VH: QVQLQESGPGLVKPSETLSLTCTVSGFSLSIYSVHWIRQPPGKGLEWLGMIWGGGSSDYNSALKSRLTISKDTSKNQVSLKLSSVTAADTAMYYCARNGNFYAMDYWGQGTLVTVSS
VL: EIVLTQSPGTLSLSPGERATLSCTASSSVSSSFLHWYQQKPGQAPQLWIYSTSNLASGIPDRFSGSGSGTDYTLTISRLEPEDFAVYYCHQYHHSPYIYTFGGGTKLEIK
Which results are given for B3?
Kd [7]: 0.939 nM; koff [7]: 4.89e-05 s⁻¹; kon [7]: 52100 M⁻¹ s⁻¹

B4: H8 K222A (antibody, V domains shown)
VH: QVQLQESGPGLVKPSETLSLTCTVSGFSLSIYSVHWIRQPPGKGLEWIGMIWGGGSSDYNSALKSRLTISKDTSKNQVSLKLSSVTAADTAVYYCARNGNFYAMDYWGQGTLVTVSS
VL: EIVLTQSPGTLSLSPGERATLSCTASSSVSSSFLHWYQQKPGQAPQLWIYSTSNLASGIPARFSGSGSGTDYTLTISRLEPEDFATYYCHQYHHSPYIYTFGGGTKLEIK
What does the source list for B4?
Kd [11]: 0.57 nM; koff [11]: 3.3e-05 s⁻¹; kon [11]: 58000 M⁻¹ s⁻¹

B5: H7 (antibody, V domains shown)
VH: QVQLQESGPGLVKPSETLSLTCTVSGFSLSIYSVHWIRQPPGKGLEWIGMIWGGGSSDYNSALKSRLTISKDTSKNQVSLKLSSVTAADTAVYYCARNGNFYAMDYWGQGTLVTVSS
VL: EIVLTQSPGTLSLSPGERATLSCTASSSVSSSFLHWYQQKPGQAPQLWIYSTSNLASGIPDRFSGSGSGTDYTLTISRLEPEDFATYYCHQYHHSPYIYTFGGGTKLEIK
With B5 as the molecule, how does the Kd [7] read?
Its Kd is 0.258 nM.

What about the koff [7] of the same molecule?
The koff was 1.07e-05 s⁻¹.

And the kon [7]?
Its kon is 41400 M⁻¹ s⁻¹.

B6: H7 K222A (antibody, V domains shown)
VH: QVQLQESGPGLVKPSETLSLTCTVSGFSLSIYSVHWIRQPPGKGLEWIGMIWGGGSSDYNSALKSRLTISKDTSKNQVSLKLSSVTAADTAVYYCARNGNFYAMDYWGQGTLVTVSS
VL: EIVLTQSPGTLSLSPGERATLSCTASSSVSSSFLHWYQQKPGQAPQLWIYSTSNLASGIPDRFSGSGSGTDYTLTISRLEPEDFATYYCHQYHHSPYIYTFGGGTKLEIK
B6 was tested. Which Kd [11] did it give?
The Kd was 0.795 nM.

And the koff [11]?
The koff was 4.36e-05 s⁻¹.

And the kon [11]?
Its kon is 54800 M⁻¹ s⁻¹.

B7: H5 (antibody, V domains shown)
VH: QVQLQESGPGLVKPSETLSLTCTVSGFSLSIYSVHWIRQPPGKGLEWIGMIWGGGSSDYNSALKSRLTISKDTSKNQVSLKLSSVTAADTAVYYCARNGNFYAMDYWGQGTLVTVSS
VL: EIVLTQSPGTLSLSPGERATLSCTASSSVSSSFLHWYQQKPGQAPRLLIYSTSNLASGIPDRFSGSGSGTDFTLTISRLEPEDFAVYYCHQYHHSPYIYTFGGGTKLEIK
For B7, which Kd [7] is on record?
The Kd was 0.825 nM.

And the koff [7]?
The koff was 4.5e-05 s⁻¹.

What about the kon [7] of the same molecule?
The kon was 54500 M⁻¹ s⁻¹.

B8: H14 K222A (antibody, V domains shown)
VH: QVQLQESGPGLVKPSETLSLTCTVSGFSLSIYSVHWIRQPPGKGLEWLGMIWGGGSSDYNSALKSRLTISKDTSKNQVSLKLSSVTAADTAMYYCARNGNFYAMDYWGQGTLVTVSS
VL: EIVLTQSPGTLSLSPGERATLSCTASSSVSSSFLHWYQQKPGQAPQLWIYSTSNLASGIPDRFSGSGSGTDYTLTISRLEPEDFAVYYCHQYHHSPYIYTFGGGTKLEIK
How did the Kd [11] turn out when B8 was run?
Its Kd is 1.3 nM.

And the koff [11]?
The koff was 6.53e-05 s⁻¹.

What about the kon [11] of the same molecule?
The kon was 50100 M⁻¹ s⁻¹.

B9: H5 K222A (antibody, V domains shown)
VH: QVQLQESGPGLVKPSETLSLTCTVSGFSLSIYSVHWIRQPPGKGLEWIGMIWGGGSSDYNSALKSRLTISKDTSKNQVSLKLSSVTAADTAVYYCARNGNFYAMDYWGQGTLVTVSS
VL: EIVLTQSPGTLSLSPGERATLSCTASSSVSSSFLHWYQQKPGQAPRLLIYSTSNLASGIPDRFSGSGSGTDFTLTISRLEPEDFAVYYCHQYHHSPYIYTFGGGTKLEIK
With B9 as the molecule, how does the Kd [11] read?
The Kd was 0.068 nM.

What about the koff [11] of the same molecule?
Its koff is 3.42e-06 s⁻¹.

And the kon [11]?
The kon was 50200 M⁻¹ s⁻¹.
